Source: publication PMC11764660, “Self-Assembled Peptide Hydrogels PPI45 and PPI47: Novel Drug Candidates for Staphylococcus aureus Infection Treatment” (Gels, 2025)
Positions count from the first letter of the chain named. Names may count otherwise.

B1: PPI42 (peptide)
chain: GFGCNGPWSEDDMKCHNHCKSIKGYKGGYCAKGGFLCKCY
notes: mutant of the fungal defensin plectasin (40 amino acids); numbers count on: the mature protein; Forms fibrils and gels by self-assembly; also called self-assembling variant PPI42; defensin-derived peptide PPI42; source: Pichia pastoris X-33 (pPICZαA), fermentation supernatant, purified by cation exchange chromatography
B2: PPI45 (peptide)
chain: B1 chain with S9N
notes: mutant of the fungal defensin plectasin, derived from PPI42 by S9N; numbers count on: the mature protein; S9N against the parent PPI42; also called PPI45:N9; source: Pichia pastoris X-33 (pPICZαA), fermentation supernatant, purified by cation exchange chromatography
B3: PPI47 (peptide)
chain: B1 chain with M13L, K14R
notes: mutant of the fungal defensin plectasin, derived from PPI42 by 13M14K to 13L14R; numbers count on: the mature protein; M13L and K14R against the parent PPI42; also called PPI47:L13 R14; source: Pichia pastoris X-33 (pPICZαA), fermentation supernatant, purified by cation exchange chromatography

Molecular target: the molecule itself
Experiment: transmission electron microscopy; peptide solution at its CMC on a copper grid, stained with phosphotungstic acid; monomers to fibres

Row | Protein | binding result
1 | B1 | binds
2 | B2 | binds
3 | B3 | binds
